Test results from patent US20190175609A1 (Novartis, published 2019).

Tests used:
[1] = target: T1, Programmed Death 1 (PD-1) (UniProt Q15116 25-167, limits assumed); test: rank among the 16 humanized clones by FACS data (order agrees with the 200 ng/ml bars of FIGURE 4, 1 = highest)
[2] = target: T2, PD-1 on PD-1-expressing 300.19 cells (UniProt Q15116 25-288, limits assumed); test: rank among the 16 humanized clones in competition binding against labeled murine mAb BAP049, 1st exp. (FIGURE 6A)
T2 construct: whole, on cells
T2 sequence (Q15116 25-288 limits assumed): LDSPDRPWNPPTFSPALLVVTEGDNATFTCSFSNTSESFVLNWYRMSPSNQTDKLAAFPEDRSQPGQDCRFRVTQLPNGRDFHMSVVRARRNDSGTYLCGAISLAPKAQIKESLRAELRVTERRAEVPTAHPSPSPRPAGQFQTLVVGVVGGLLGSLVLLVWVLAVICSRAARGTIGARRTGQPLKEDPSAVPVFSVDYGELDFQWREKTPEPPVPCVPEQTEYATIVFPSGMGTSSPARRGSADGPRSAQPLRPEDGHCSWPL

[3] = target: T2, PD-1 on PD-1-expressing 300.19 cells; test: rank among the 16 humanized clones in competition binding against labeled murine mAb BAP049, 2nd exp. (FIGURE 6B)
[4] = target: T1, Programmed Death 1 (PD-1); test: FACS ligand blocking: mAb titrated, signal of ligand-Ig bound to PD-1; legend paragraph 46 names PD-L1-Ig and PD-L2-Ig as blocked ligands for FIG. 8A; cells not named

T1 sequence (Q15116 25-167 limits assumed): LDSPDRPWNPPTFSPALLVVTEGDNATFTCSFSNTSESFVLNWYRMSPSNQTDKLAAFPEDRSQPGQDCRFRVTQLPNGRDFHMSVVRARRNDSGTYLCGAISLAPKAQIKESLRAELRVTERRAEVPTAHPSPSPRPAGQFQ

Row | Binder | Competition Binding 1st exp. [2] | Competition Binding 2nd exp. [3] | Ranking FACS data [1] | IC50 (read off the curve) [4]
1 | BAP049-hum10 (antibody, human IgG4 S228P, kappa, Humanized mAb) heavy: not shown light: EIVLTQSPATLSLSPGERATLSCKSSQSLLDSGNQKNFLTWYQQKPGQAPRLLIYWASTRESGVPSRFSGSGSGTDFTFTISSLEAEDAATYYCQNDYSYPYTFGQGTKVEIKRTVAAPSVFIFPPSDEQLKSGTASVVCLLNNFYPREAKVQWKVDNALQSGNSQESVTEQDSKDSTYSLSSTLTLSKADYEKHKVYACEVTHQGLSSPVTKSFNRGEC | 6 | > 4 | 7 | ~1 µg/mL
2 | BAP049-hum11 (antibody, human IgG4 S228P, kappa, Humanized mAb) heavy: not shown light: EIVLTQSPATLSLSPGERATLSCKSSQSLLDSGNQKNFLTWYQQKPGQAPRLLIYWASTRESGVPSRFSGSGSGTDFTFTISSLEAEDAATYYCQNDYSYPYTFGQGTKVEIKRTVAAPSVFIFPPSDEQLKSGTASVVCLLNNFYPREAKVQWKVDNALQSGNSQESVTEQDSKDSTYSLSSTLTLSKADYEKHKVYACEVTHQGLSSPVTKSFNRGEC | 4 | > 4 | 6 | –
3 | BAP049-hum08 (antibody, human IgG4 S228P, kappa, Humanized mAb) heavy: not shown light: EIVLTQSPDFQSVTPKEKVTITCKSSQSLLDSGNQKNFLTWYQQKPGQAPRLLIYWASTRESGVPSRFSGSGSGTDFTFTISSLEAEDAATYYCQNDYSYPYTFGQGTKVEIKRTVAAPSVFIFPPSDEQLKSGTASVVCLLNNFYPREAKVQWKVDNALQSGNSQESVTEQDSKDSTYSLSSTLTLSKADYEKHKVYACEVTHQGLSSPVTKSFNRGEC | 7 | 4 | 7 | –
4 | BAP049-hum04 (antibody, human IgG4 S228P, kappa, V domains shown, also called Clone No. 4) VH: EVQLVQSGAEVKKPGESLRISCKGSGYTFTTYWMHWIRQSPSRGLEWLGNIYPGTGGSNFDEKFKNRFTISRDNSKNTLYLQMNSLRAEDTAVYYCTRWTTGTGAYWGQGTTVTVSS VL: EIVLTQSPATLSLSPGERATLSCKSSQSLLDSGNQKNFLTWYQQKPGKAPKLLIYWASTRESGVPSRFSGSGSGTDFTFTISSLQPEDIATYYCQNDYSYPYTFGQGTKVEIKR | 15 | 15 | 14 | –
5 | BAP049-hum06 (antibody, human IgG4 S228P, kappa, also called Clone No. 6) heavy chain: not shown light chain: DIVMTQTPLSLPVTPGEPASISCKSSQSLLDSGNQKNFLTWYQQKPGQAPRLLIYWASTRESGVPSRFSGSGSGTDFTFTISSLEAEDAATYYCQNDYSYPYTFGQGTKVEIKRTVAAPSVFIFPPSDEQLKSGTASVVCLLNNFYPREAKVQWKVDNALQSGNSQESVTEQDSKDSTYSLSSTLTLSKADYEKHKVYACEVTHQGLSSPVTKSFNRGEC | 7 | 3 | 1 | –
6 | BAP049-hum01 (antibody, human IgG4 S228P, kappa, V domains shown, Humanized mAb) VH: EVQLVQSGAEVKKPGESLRISCKGSGYTFTTYWMHWVRQATGQGLEWMGNIYPGTGGSNFDEKFKNRVTITADKSTSTAYMELSSLRSEDTAVYYCTRWTTGTGAYWGQGTTVTVSS VL: EIVLTQSPATLSLSPGERATLSCKSSQSLLDSGNQKNFLTWYQQKPGQAPRLLIYWASTRESGVPSRFSGSGSGTEFTLTISSLQPDDFATYYCQNDYSYPYTFGQGTKVEIKR | 7 | 2 | 2 | ~1 µg/mL
7 | Chi mAb (Tyr) (antibody, human IgG4 S228P, kappa, V domains shown, also called BAP049-chi-Y; Chi (Tyr)) VH: QVQLQQSGSELVRPGASVKLSCKASGYTFTTYWMHWVRQRPGQGLEWIGNIYPGTGGSNFDEKFKNRTSLTVDTSSTTAYMHLASLTSEDSAVYYCTRWTTGTGAYWGQGTTVTVSS VL: DIVMTQSPSSLTVTAGEKVTMSCKSSQSLLDSGNQKNFLTWYQQKPGQPPKLLIFWASTRESGVPDRFTGSGSVTDFTLTISSVQAEDLAVYYCQNDYSYPYTFGQGTKVEIKR | – | – | – | ~0.8 µg/mL
8 | murine anti-PD-1 mAb BAP049 (antibody, V domains shown, the murine constant regions are not described; also called Mu mAb; murine mAb BAP049) VH: QVQLQQSGSELVRPGASVKLSCKASGYTFTTYWMHWVRQRPGQGLEWIGNIYPGTGGSNFDEKFKNRTSLTVDTSSTTAYMHLASLTSEDSAVYYCTRWTTGTGAYWGQGTLVTVSA VL: DIVMTQSPSSLTVTAGEKVTMSCKSSQSLLDSGNQKNFLTWYQQKPGQPPKLLIFWASTRESGVPDRFTGSGSVTDFTLTISSVQAEDLAVYYCQNDYSYPCTFGGGTKLEIK | – | – | – | ~0.6 µg/mL
9 | BAP049-hum02 (antibody, human IgG4 S228P, kappa, V domains shown, also called Clone No. 2) VH: EVQLVQSGAEVKKPGESLRISCKGSGYTFTTYWMHWVRQATGQGLEWMGNIYPGTGGSNFDEKFKNRVTITADKSTSTAYMELSSLRSEDTAVYYCTRWTTGTGAYWGQGTTVTVSS VL: DIQMTQSPSSLSASVGDRVTITCKSSQSLLDSGNQKNFLTWYQQKPGQAPRLLIYWASTRESGIPPRFSGSGYGTDFTLTINNIESEDAAYYFCQNDYSYPYTFGQGTKVEIKR | 3 | 2 | 6 | –
10 | BAP049-hum03 (antibody, human IgG4 S228P, kappa, V domains shown, also called Clone No. 3) VH: EVQLVQSGAEVKKPGESLRISCKGSGYTFTTYWMHWIRQSPSRGLEWLGNIYPGTGGSNFDEKFKNRFTISRDNSKNTLYLQMNSLRAEDTAVYYCTRWTTGTGAYWGQGTTVTVSS VL: DIQMTQSPSSLSASVGDRVTITCKSSQSLLDSGNQKNFLTWYQQKPGQAPRLLIYWASTRESGIPPRFSGSGYGTDFTLTINNIESEDAAYYFCQNDYSYPYTFGQGTKVEIKR | 8 | 14 | 7 | –

Further lines, with some results ahead:

Row | Competition Binding 1st exp. [2] | Competition Binding 2nd exp. [3] | Binder | Ranking FACS data [1] | IC50 (read off the curve) [4]
11 | 7 | 15 | BAP049-hum15 (antibody, human IgG4 S228P, kappa, also called Clone No. 15) heavy chain: not shown light chain: EIVLTQSPDFQSVTPKEKVTITCKSSQSLLDSGNQKNFLTWYQQKPGQAPRLLIYWASTRESGVPSRFSGSGSGTDFTFTISSLEAEDAATYYCQNDYSYPYTFGQGTKVEIKRTVAAPSVFIFPPSDEQLKSGTASVVCLLNNFYPREAKVQWKVDNALQSGNSQESVTEQDSKDSTYSLSSTLTLSKADYEKHKVYACEVTHQGLSSPVTKSFNRGEC | 6 | –
12 | 16 | 15 | BAP049-hum16 (antibody, human IgG4 S228P, kappa, V domains shown, also called Clone No. 16) VH: EVQLVQSGAEVKKPGESLRISCKGSGYTFTTYWMHWVRQAPGQGLEWMGNIYPGTGGSNFDEKFKNRFTISRDNSKNTLYLQMNSLRAEDTAVYYCTRWTTGTGAYWGQGTTVTVSS VL: EIVLTQSPDFQSVTPKEKVTITCKSSQSLLDSGNQKNFLTWYQQKPGQAPRLLIYWASTRESGVPSRFSGSGSGTDFTFTISSLEAEDAATYYCQNDYSYPYTFGQGTKVEIKR | 15 | –
13 | 2 | 4 | BAP049-hum09 (antibody, human IgG4 S228P, kappa, Humanized mAb) heavy: not shown light: EIVLTQSPDFQSVTPKEKVTITCKSSQSLLDSGNQKNFLTWYQQKPGQAPRLLIYWASTRESGVPSRFSGSGSGTDFTFTISSLEAEDAATYYCQNDYSYPYTFGQGTKVEIKRTVAAPSVFIFPPSDEQLKSGTASVVCLLNNFYPREAKVQWKVDNALQSGNSQESVTEQDSKDSTYSLSSTLTLSKADYEKHKVYACEVTHQGLSSPVTKSFNRGEC | 7 | –
14 | 7 | 15 | BAP049-hum14 (antibody, human IgG4 S228P, kappa, also called Clone No. 14) heavy chain: not shown light chain: EIVLTQSPATLSLSPGERATLSCKSSQSLLDSGNQKNFLTWYQQKPGQAPRLLIYWASTRESGVPSRFSGSGSGTDFTFTISSLEAEDAATYYCQNDYSYPYTFGQGTKVEIKRTVAAPSVFIFPPSDEQLKSGTASVVCLLNNFYPREAKVQWKVDNALQSGNSQESVTEQDSKDSTYSLSSTLTLSKADYEKHKVYACEVTHQGLSSPVTKSFNRGEC | 16 | –
15 | 7 | > 4 | BAP049-hum07 (antibody, human IgG4 S228P, kappa, also called Clone No. 7) heavy chain: not shown light chain: EIVLTQSPATLSLSPGERATLSCKSSQSLLDSGNQKNFLTWYQQKPGKAPKLLIYWASTRESGVPSRFSGSGSGTDFTFTISSLEAEDAATYYCQNDYSYPYTFGQGTKVEIKRTVAAPSVFIFPPSDEQLKSGTASVVCLLNNFYPREAKVQWKVDNALQSGNSQESVTEQDSKDSTYSLSSTLTLSKADYEKHKVYACEVTHQGLSSPVTKSFNRGEC | 4 | –
16 | 8 | 16 | BAP049-hum12 (antibody, human IgG4 S228P, kappa, V domains shown, also called Clone No. 12) VH: EVQLVQSGAEVKKPGESLRISCKGSGYTFTTYWMHWVRQATGQGLEWMGNIYPGTGGSNFDEKFKNRVTITADKSTSTAYMELSSLRSEDTAVYYCTRWTTGTGAYWGQGTTVTVSS VL: DIQMTQSPSSLSASVGDRVTITCKSSQSLLDSGNQKNFLTWYLQKPGQSPQLLIYWASTRESGVPSRFSGSGSGTDFTFTISSLEAEDAATYYCQNDYSYPYTFGQGTKVEIKR | 3 | –
17 | 1 | 1 | BAP049-hum13 (antibody, human IgG4 S228P, kappa, also called Clone No. 13) heavy chain: not shown light chain: DVVMTQSPLSLPVTLGQPASISCKSSQSLLDSGNQKNFLTWYQQKPGKAPKLLIYWASTRESGVPSRFSGSGSGTDFTFTISSLEAEDAATYYCQNDYSYPYTFGQGTKVEIKRTVAAPSVFIFPPSDEQLKSGTASVVCLLNNFYPREAKVQWKVDNALQSGNSQESVTEQDSKDSTYSLSSTLTLSKADYEKHKVYACEVTHQGLSSPVTKSFNRGEC | 6 | –
